Reference: US20250368745A1 (published 2025)
Positions count from the first letter of the chain named. Names and notes keep the numbering of the source. Read-outs that look alike come from different tables or passages of the source.

T1: human IL-18BP (human, UniProt O95998 31-194)
T1 construct: UniProt printed as 095998; also called hIL-18BP
T1 sequence: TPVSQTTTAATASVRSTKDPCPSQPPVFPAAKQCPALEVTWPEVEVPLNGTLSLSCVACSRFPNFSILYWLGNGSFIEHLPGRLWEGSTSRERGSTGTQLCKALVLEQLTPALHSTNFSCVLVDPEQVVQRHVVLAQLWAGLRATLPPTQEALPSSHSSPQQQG

B1: SA301a HC-H52A (antibody, name in Kabat numbering, V domains shown)
VH: QVQLQESGPGLVKPSQTLSLTCTVSGYSITSDYNSHWIRQPPGKGLEWIGYIAYSGSTNYNPSLKSRVTISRDTSKNQFSLKLSSVTAADTAVYYCARNYGSIYVNYFDYWGQGTLVTVSS
VL: EIVLTQSPATLSLSPGERATLSCSASSSVSYMYWYQQKPGQAPRPLIYRTSNLASGIPARFSGSGSGTDFTLTISSLEPEDFAVYYCQQYHSYPTFGGGTKVEIK
notes: IgG1 kappa
B2: SA302a HC-N33bH (antibody, V domains shown)
VH: B1 VH with N34H, S35A, A53H
VL: B1 VL
B3: SA302a HC-Y33aN (antibody, V domains shown)
VH: B1 VH with Y33N, S35A, A53H
VL: B1 VL
B4: SA302a HC-N33bA (antibody, V domains shown)
VH: B1 VH with N34A, S35A, A53H
VL: B1 VL
B5: SA302a HC-D33N (antibody, V domains shown)
VH: B1 VH with D32N, S35A, A53H
VL: B1 VL
B6: SA302a HC-Y33aR (antibody, V domains shown)
VH: B1 VH with Y33R, S35A, A53H
VL: B1 VL
B7: SA302a HC-N33bP (antibody, V domains shown)
VH: B1 VH with N34P, S35A, A53H
VL: B1 VL
B8: SA302a HC-N33bQ (antibody, V domains shown)
VH: B1 VH with N34Q, S35A, A53H
VL: B1 VL
B9: SA302a HC-N33bK (antibody, V domains shown)
VH: B1 VH with N34K, S35A, A53H
VL: B1 VL
B10: SA302a HC-Y33aM (antibody, V domains shown)
VH: B1 VH with Y33M, S35A, A53H
VL: B1 VL
B11: SA302a HC-N33bG (antibody, V domains shown)
VH: B1 VH with N34G, S35A, A53H
VL: B1 VL
B12: SA302a HC-H35L (antibody, V domains shown)
VH: B1 VH with S35A, H36L, A53H
VL: B1 VL
B13: SA302a HC-N33bT (antibody, V domains shown)
VH: B1 VH with N34T, S35A, A53H
VL: B1 VL
B14: SA302a HC-Y33aE (antibody, V domains shown)
VH: B1 VH with Y33E, S35A, A53H
VL: B1 VL
B15: SA302a HC-Y33aL (antibody, V domains shown)
VH: B1 VH with Y33L, S35A, A53H
VL: B1 VL
B16: SA302a HC-Y33aV (antibody, V domains shown)
VH: B1 VH with Y33V, S35A, A53H
VL: B1 VL
B17: SA302a HC-N33bY (antibody, V domains shown)
VH: B1 VH with N34Y, S35A, A53H
VL: B1 VL
B18: SA302a HC-H35R (antibody, V domains shown)
VH: B1 VH with S35A, H36R, A53H
VL: B1 VL
B19: SA302a HC-H35D (antibody, V domains shown)
VH: B1 VH with S35A, H36D, A53H
VL: B1 VL
B20: SA302a HC-Y33aH (antibody, V domains shown)
VH: B1 VH with Y33H, S35A, A53H
VL: B1 VL
B21: SA302a HC-Y33aD (antibody, V domains shown)
VH: B1 VH with Y33D, S35A, A53H
VL: B1 VL
B22: SA302a HC-H35N (antibody, V domains shown)
VH: B1 VH with S35A, H36N, A53H
VL: B1 VL
B23: SA302a HC-N33bR (antibody, V domains shown)
VH: B1 VH with N34R, S35A, A53H
VL: B1 VL
B24: SA302a HC-D33I (antibody, V domains shown)
VH: B1 VH with D32I, S35A, A53H
VL: B1 VL
B25: SA302a HC-D33H (antibody, V domains shown)
VH: B1 VH with D32H, S35A, A53H
VL: B1 VL
B26: SA302a HC-N33bD (antibody, V domains shown)
VH: B1 VH with N34D, S35A, A53H
VL: B1 VL
B27: SA302a HC-H35G (antibody, V domains shown)
VH: B1 VH with S35A, H36G, A53H
VL: B1 VL
B28: SA302a HC-N33bF (antibody, V domains shown)
VH: B1 VH with N34F, S35A, A53H
VL: B1 VL
B29: SA302a HC-Y33aS (antibody, V domains shown)
VH: B1 VH with Y33S, S35A, A53H
VL: B1 VL
B30: SA302a HC-D33R (antibody, V domains shown)
VH: B1 VH with D32R, S35A, A53H
VL: B1 VL
B31: SA302a HC-N33bV (antibody, V domains shown)
VH: B1 VH with N34V, S35A, A53H
VL: B1 VL
B32: SA301a HC-S54P (antibody, name in Kabat numbering, V domains shown)
VH: B1 VH with A53H, S55P
VL: B1 VL
notes: IgG1 kappa
B33: SA301a HC-Y53A (antibody, name in Kabat numbering, V domains shown)
VH: B1 VH with A53H, Y54A
VL: B1 VL
notes: IgG1 kappa
B34: SA301a HC-H52P (antibody, name in Kabat numbering, V domains shown)
VH: B1 VH with A53P
VL: B1 VL
notes: IgG1 kappa
B35: SA301a HC-S54Q (antibody, name in Kabat numbering, V domains shown)
VH: B1 VH with A53H, S55Q
VL: B1 VL
notes: IgG1 kappa
B36: SA301a HC-S54V (antibody, name in Kabat numbering, V domains shown)
VH: B1 VH with A53H, S55V
VL: B1 VL
notes: IgG1 kappa
B37: SA301a HC-S54M (antibody, name in Kabat numbering, V domains shown)
VH: B1 VH with A53H, S55M
VL: B1 VL
notes: IgG1 kappa
B38: SA301a HC-S54T (antibody, name in Kabat numbering, V domains shown)
VH: B1 VH with A53H, S55T
VL: B1 VL
notes: IgG1 kappa
B39: SA301a HC-S54G (antibody, name in Kabat numbering, V domains shown)
VH: B1 VH with A53H, S55G
VL: B1 VL
notes: IgG1 kappa
B40: SA301a HC-H52K (antibody, name in Kabat numbering, V domains shown)
VH: B1 VH with A53K
VL: B1 VL
notes: IgG1 kappa
B41: SA301a HC-H52T (antibody, name in Kabat numbering, V domains shown)
VH: B1 VH with A53T
VL: B1 VL
notes: IgG1 kappa
B42: SA301a HC-H52Y (antibody, name in Kabat numbering, V domains shown)
VH: B1 VH with A53Y
VL: B1 VL
notes: IgG1 kappa
B43: SA301a HC-S54L (antibody, name in Kabat numbering, V domains shown)
VH: B1 VH with A53H, S55L
VL: B1 VL
notes: IgG1 kappa
B44: SA301a HC-S54Y (antibody, name in Kabat numbering, V domains shown)
VH: B1 VH with A53H, S55Y
VL: B1 VL
notes: IgG1 kappa
B45: SA301a HC-Y53D (antibody, name in Kabat numbering, V domains shown)
VH: B1 VH with A53H, Y54D
VL: B1 VL
notes: IgG1 kappa
B46: SA301a HC-S54R (antibody, name in Kabat numbering, V domains shown)
VH: B1 VH with A53H, S55R
VL: B1 VL
notes: IgG1 kappa
B47: SA301a HC-S54N (antibody, name in Kabat numbering, V domains shown)
VH: B1 VH with A53H, S55N
VL: B1 VL
notes: IgG1 kappa

How the values were obtained:
human IL-18BP [1] = target: T1, human IL-18BP; test: BLI, apparent KD
human IL-18BP [2] = target: T1, human IL-18BP; test: BLI, apparent KD; remark: listed apart in the source

Binder	Kd (human IL-18BP [1])	Kd (human IL-18BP [2])
B1	0.24 nM	–
B2	–	2.91 nM
B3	–	5.92 nM
B4	–	5.45 nM
B5	–	1.66 nM
B6	–	8.72 nM
B7	–	6.05 nM
B8	–	6.01 nM
B9	–	1.12 nM
B10	–	3.05 nM
B11	–	2.21 nM
B12	–	1.74 nM
B13	–	1.63 nM
B14	–	8.65 nM
B15	–	2.36 nM
B16	–	4.49 nM
B17	–	6.15 nM
B18	–	1.18 nM
B19	–	4.23 nM
B20	–	4.11 nM
B21	–	10.5 nM
B22	–	3.02 nM
B23	–	2.23 nM
B24	–	4.97 nM

Binder	Kd (human IL-18BP [1])	Kd (human IL-18BP [2])
B25	–	2.99 nM
B26	–	1.03 nM
B27	–	2.05 nM
B28	–	5.24 nM
B29	–	4.38 nM
B30	–	2.24 nM
B31	–	1.36 nM
B32	1.11 nM	–
B33	2.6 nM	–
B34	0.01 nM	–
B35	2.31 nM	–
B36	0.55 nM	–
B37	1.94 nM	–
B38	1.14 nM	–
B39	0.33 nM	–
B40	0.01 nM	–
B41	1.92 nM	–
B42	0.79 nM	–
B43	2.64 nM	–
B44	4.66 nM	–
B45	3.2 nM	–
B46	4.06 nM	–
B47	0.36 nM	–
